In the supplement of paper PMC11246515:
± gives the standard deviation of the averaged measurements.

Assay: total protein half-life in vivo (active degradation + dilution); higher = more stable protein
[1] = E. coli NCM3722 delta-clpP delta-lon delta-hslV, growth: N-lim chemostat, doubling time 6 h
[2] = E. coli NCM3722 delta-clpP, growth: N-lim chemostat, doubling time 6 h
[3] = E. coli NCM3722 delta-hslV, growth: N-lim chemostat, doubling time 6 h
[4] = E. coli NCM3722 delta-lon, growth: N-lim chemostat, doubling time 6 h
[5] = E. coli NCM3722 delta-smpB, growth: N-lim chemostat, doubling time 6 h
[6] = wild type E. coli NCM3722, growth: C-lim chemostat, doubling time 12 h
[7] = wild type E. coli NCM3722, growth: N-lim chemostat, doubling time 6 h
[8] = wild type E. coli NCM3722, growth: N-lim chemostat, doubling time 12 h
[9] = wild type E. coli NCM3722, growth: P-lim chemostat, doubling time 6 h
[10] = wild type E. coli NCM3722, growth: P-lim chemostat, doubling time 12 h
[11] = wild type E. coli NCM3722, growth: C-lim chemostat, doubling time 6 h
[12] = wild type E. coli NCM3722, growth: C-lim chemostat, doubling time 3 h

| Sequence | total protein half-life in vivo [1] [h] | total protein half-life in vivo [2] [h] | total protein half-life in vivo [3] [h] | total protein half-life in vivo [4] [h] | total protein half-life in vivo [5] [h] | total protein half-life in vivo [6] [h] | total protein half-life in vivo [7] [h] | total protein half-life in vivo [8] [h] | total protein half-life in vivo [9] [h] | total protein half-life in vivo [10] [h] | total protein half-life in vivo [11] [h] | total protein half-life in vivo [12] [h] |
| --- | --- | --- | --- | --- | --- | --- | --- | --- | --- | --- | --- | --- |
| MEWIADPSIWAGLITLIVIELVLGIDNLVFIAILAEKLPPKQRDRARVTGLLLAMLMRLLLLASISWLVTLTQPLFSFRSFTFSARDLIMLFGGFFLLFKATMELNERLEGKDSNNPTQRKGAKFWGVVTQIVVLDAIFSLDSVITAVGMVDHLLVMMAAVVIAISLMLMASKPLTQFVNSHPTIVILCLSFLLMIGFSLVAEGFGFVIPKGYLYAAIGFSVMIEALNQLAIFNRRRFLSANQTLRQRTTEAVMRLLSGQKEDAELDAETASMLVDHGNQQIFNPQERRMIERVLNLNQRTVSSIMTSRHDIEHIDLNAPEEEIRQLLERNQHTRLVVTDGDDAEDLLGVVHVIDLLQQSLRGEPLNLRVLIRQPLVFPETLPLLPALEQFRNARTHFAFVVDEFGSVEGIVTLSDVTETIAGNLPNEVEEIDARHDIQKNADGSWTANGHMPLEDLVQYVPLPLDEKREYHTIAGLLMEYLQRIPKPGEEVQVGDYLLKTLQVESHRVQKVQIIPLRKDGEMEYEV | 6.68 ± 1.2 | 6.24 ± 0.2 | 6.92 ± 0.87 | 6.34 ± 0.46 | 6.27 ± 0.67 | 14.9 ± 0.52 | 6.24 ± 0.23 | 12.28 ± 0.022 | 6.598 ± 0.06 | 11.1 ± 2 |  |  |
| MEYQHWLREAISQLQASESPRRDAEILLEHVTGRGRTFILAFGETQLTDEQCQQLDALLTRRRDGEPIAHLTGVREFWSLPLFVSPATLIPRPDTECLVEQALARLPEQPCRILDLGTGTGAIALALASERPDCEIIAVDRMPDAVSLAQRNAQHLAIKNIHILQSDWFSALAGQQFAMIVSNPPYIDEQDPHLQQGDVRFEPLTALVAADSGMADIVHIIEQSRNALVSGGFLLLEHGWQQGEAVRQAFILAGYHDVETCRDYGDNERVTLGRYYQ [P0ACC1] | 4.72 ± 1.1 | 3.88 | 3.35 | 4.15 ± 0.14 | 3.23 | 9.85 |  | 5.79 ± 0.26 | 5.35 ± 0.41 | 9.69 ± 0.87 | 5.5 ± 0.85 |  |
| MEYQLTLNWPDFLERHWQKRPVVLKRGFNNFIDPISPDELAGLAMESEVDSRLVSHQDGKWQVSHGPFESYDHLGETNWSLLVQAVNHWHEPTAALMRPFRELPDWRIDDLMISFSVPGGGVGPHLDQYDVFIIQGTGRRRWRVGEKLQMKQHCPHPDLLQVDPFEAIIDEELEPGDILYIPPGFPHEGYALENAMNYSVGFRAPNTRELISGFADYVLQRELGGNYYSDPDVPPRAHPADVLPQEMDKLREMMLELINQPEHFKQWFGEFISQSRHELDIAPPEPPYQPDEIYDALKQGEVLVRLGGLRVLRIGDDVYANGEKIDSPHRPALDALASNIALTAENFGDALEDPSFLAMLAALVNSGYWFFEG | 5 ± 0.51 | 5.08 ± 0.63 | 4.45 ± 0.092 | 4.25 ± 0.14 | 4.63 ± 0.28 | 10.1 ± 1 | 4.6 ± 0.32 | 8.11 ± 0.15 | 6.71 ± 1.1 | 13 ± 0.99 | 5.25 ± 0.26 | 3.12 ± 0.54 |
| MEYRSLTLDDFLSRFQLLRPQINRETLNHRQAAVLIPIVRRPQPGLLLTQRSIHLRKHAGQVAFPGGAVDDTDASAIAAALREAEEEVAIPPSAVEVIGVLPPVDSVTGYQVTPVVGIIPPDLPYRASEDEVSAVFEMPLAQALHLGRYHPLDIYRRGDSHRVWLSWYEQYFVWGMTAGIIRELALQIGVKP | 5.44 ± 0.41 | 2.96 ± 0.13 | 3.99 ± 0.25 | 4.38 ± 0.51 | 3.01 ± 0.22 | 7.74 ± 0.73 | 4 ± 0.21 | 6.98 ± 0.38 | 4.45 ± 0.2 | 8.18 ± 0.56 | 5.03 ± 0.89 | 2.36 ± 0.8 |
| MFAVSSRRVLPGFTLSLGTSLLFVCLILLLPLSALVMQLAQMSWAQYWEVITNPQVVAAYKVTLLSAFVASIFNGVFGLLMAWILTRYRFPGRTLLDALMDLPFALPTAVAGLTLASLFSVNGFYGEWLAKFDIKVTYTWLGIAVAMAFTSIPFVVRTVQPVLEELGPEYEEAAETLGATRWQSFCKVVLPELSPALVAGVALSFTRSLGEFGAVIFIAGNIAWKTEVTSLMIFVRLQEFDYPAASAIASVILAASLLLLFSINTLQSRFGRRVVGH | 7.77 | 6.57 | 4.7 | 4.58 | 2.4 | 7.05 | 4.83 ± 0.59 |  |  | 10.2 ± 1.2 | 4.2551 ± 0.0035 | 3.13 ± 0.25 |
| MFDNLTDRLSRTLRNISGRGRLTEDNVKDTLREVRMALLEADVALPVVREFINRVKEKAVGHEVNKSLTPGQEFVKIVRNELVAAMGEENQTLNLAAQPPAVVLMAGLQGAGKTTSVGKLGKFLREKHKKKVLVVSADVYRPAAIKQLETLAEQVGVDFFPSDVGQKPVDIVNAALKEAKLKFYDVLLVDTAGRLHVDEAMMDEIKQVHASINPVETLFVVDAMTGQDAANTAKAFNEALPLTGVVLTKVDGDARGGAALSIRHITGKPIKFLGVGEKTEALEPFHPDRIASRILGMGDVLSLIEDIESKVDRAQAEKLASKLKKGDGFDLNDFLEQLRQMKNMGGMASLMGKLPGMGQIPDNVKSQMDDKVLVRMEAIINSMTMKERAKPEIIKGSRKRRIAAGCGMQVQDVNRLLKQFDDMQRMMKKMKKGGMAKMMRSMKGMMPPGFPGR [P0AGD7] | 5.51 ± 0.064 | 5.31 ± 0.54 | 4.4 ± 0.073 | 5.49 ± 0.42 | 4.58 ± 0.087 | 8.739 ± 0.073 | 4.28 ± 0.099 | 7.9 ± 0.14 | 4.6 ± 0.13 | 9.883 ± 0.071 | 4.898 ± 0.04 | 2.85 ± 0.033 |
| MFDSLAKAGKYLGQAAKLMIGMPDYDNYVEHMRVNHPDQTPMTYEEFFRERQDARYGGKGGARCC [P0AAS9] |  |  |  |  |  | 1.47 |  |  |  |  | 1.49 ± 0.45 | 1.43 |
